In the DeepSol protein solubility set:

Assay: soluble on expression in E. coli; label from the status in PepcDB or PDB records

Sequence | soluble on expression in E. coli
MSDAIVVGAGPNGLAAAVALARRGLKVTVLEAADEIGGGTRTSELTVPGLLHDHCSAVHPLGVGSPFLRTLGLERYGVTWAWPDVDLAHPLDGGRAGVLVRSMERTVRGLGPDGPAWERLFAPLAEDFDALTEDLLRPVPHLPAHPVELARFGLRALQPATTVARRWRGAEARALFAGAAAHLMHPLTGPTSSAVGLMLVGAAHRFGWPVARGGSRTITDALAALLAQLGGTIETGVRVDSLDQLAAARIVMLDTAPGAAARICGDRLPGRVRSAYEGWRHGPAAFKVDLAVQDGIPWTHEACRRAGTVHLGGTLEEVVRTEAQTAGGRMPERPFVLVGQQYLADPSRSRGDVHPIWAYAHVPHGYPGDATEAVLRQIERFAPGFRDRIVGIAARSTAELARSNTNFVGGDIVGGANTARQVALRPRVALDPYSTGIPGVYLCSAATPPGAGVHGMCGANAARSALRYLDRLEHHHHHH | not soluble
MIFRSFFTHRIASMETKRLKLIPACLERAEEAHQAVVRSQKTLEVYLPWVPHVLTLEAMIEGTEKAIANFENFEEELRYYIIEK | not soluble
MQTVIFGRSGCPYSVRAKDLAEKLSNERDDFQYQYVDIRAEGITKEDLQQKAGKPVETVPQIFVDQQHIGGYTDFAAWVKENLDA | soluble
DVQKKTFTKWINARFSKSGKPPINDMFTDLKDGRKLLDLLEGLTGTSLPKERGSTRVHALNNVNRVLQVLHQNNVELVNIGGTDIVDGNHKLTLGLLWSIILHWQVKDVMKDVMSDLQQTNSEKILLSWVRQTTRPYSQVNVLNFTTSWTDGLAFNAVLHRHKPDLFSWDKVVKMSPIERLEHAFSKAQTYLGIEKLLDPEDVAVRLPDKKSIIMYLTSLFEVLPQ | soluble
MGSDKIHHHHHHMFDTLASLGRDLQARETLNACLDRVFRDVCAQGFQSLVYDYAPVPLSMEGALITPSVFLQRNAPDDMHNVWCEHGYYQNDPVQQRATRRTTPFVWSYRTEGRTEGRTEGVEYVGDQHRQVTRYLCDSDMGTGVTVPLHLPGGAFATFSAAVNATQAEAPRLAEAQLPPFLLLAHAFQARAQELLDPQERRCHHIALTRRERECLQYSAKGMTAKSIAATLNRSTATVNLHLNSAARKLGARNRVEAVVRGMHYRLLEL | not soluble
MGHHHHHHSHMKRSLSENSARSTADWAWEAVNPELAPVMKTVDTGQIPHSVSRPLRSQDSVFNSIQSNTGRSQGGWSYRDGNKNTSLKTWNKNDFKPQCKRTNLVANDGKNSCPVSSGAQQQKQLRIPEPPNLSRNKETELLRQTHSSKISGCTMRGLDKNSALQTLKPNFQQNQYKKQMLDDIPEDNTLKETSLYQLQFKEKASSLRIISAVIESMKYWREHAQKTVLLFEVLAVLDSAVTPGPYYSKTFLMRDGKNTLPCVFYEIDRELPRLIRGRVHRCVGNYDQKKNIFQCVSVRPASVSEQKTFQAFVKIADVEMQYYINVMNET | not soluble
MGSDKIHHHHHHVNDGSNDFELLGSPWICENPHANWTAPAAHGMFKRFKKKEIIIHSGDQIDYIYYLHKGRIKTVAQSPSGSQKILWYIEAGSIFGETPFFNRKPCDYNFFAVTDCEIYIYPMEVIMQEIIPKFPDLTLSIIKTLSRKVHILSTQVEDCVFNKPLVRVAKLIYLLHQGRILEDKRGSSSIPLTQEDIANTLGMHRVTVNQALKHLKEIQALKEHTHLIIIHDPEKLKEVMEA | not soluble
MGSDKIHHHHHHMELKDYFPEMQVGPHPLGDKDWMSIKEGDQYVHFPKSCLSEKERLLLEVGLGQCEVLQPLGSPWQRYLLDHQGNPPQLYETSQFIYLNHQQALPDDLVELLQQMIAGLEVILPISATQTAFLCRQAISIKVLRWLEDLLPTLESDFGLALTMFVGNAWYQVAAGTLRECFEEECQLLTAYLRQQSGRKLLTFSGLMLWSLLSHHTFLALTRQFHQFLSPQSDMADVVHALWSEHGNLVQTAQRLYIHRNSLQYKLDKFAQQSGLHLKQLDDLAFAHLFLLKY | not soluble
MPPQKSKALWYAQLELGFRFDGQRTIMNHRKHHGPVRVQKMLWPEKTGVCHAIIVHPPAGIAGGDHLTFQVSTERKAHAVVTTPGAGKWYKTNGKQAFQHIYLNIANDSTLEWLPQETMLFDAAYAQSETIIHLDQTASFMGWDMLVLGRQARLETFEQGCYANRFKLYRNHKLLVADTLRFKGKDRWLSSCLGMNGHAVMGSFWAVAPEKYRATLYLEQHIELIRELMMRMDVPVTLTLLDDVVCARFLGDDVRACHDAFAAIRARLRRYWFDLDEEFPRIWRTLEHHHHHH | not soluble
MAHHHHHHMKSSSKDLCKYFCRKCNNFIYYNEACELIYKKIYPDYYKIYYNKYEFDKKTKGKKEVNPKQYDNLYRQLYNNGLCGVNKQRNDFLNKDNINNILLFLNKGSIQCNKCNHIHMWYMK | soluble
MKNMNKYENCLLCPRKCGINRSTGQTGVCGVSSEIKVARAALHYWEEPCISGKRGSGAVFFSGCSLHCVFCQNREISDGKAGKVISKERLSDIFMELADKGANNINLVTPGQYIPDIVWAVNDAKSRGMKLPIIYNTSGYENVTELKLLEGIVDVYLPDFKYMDSTLSARYSRAKDYPSVAKQALSEMVRQQPDVVIDDATGLIQKGVIVRQLLLPGHVNDAKAVLKYLYDTYHDHVYISMMSQFTPIALKDYPEINRTVTRREYERLVDYALEIGITNAFIQEGDVAKDSFIPAFDCEGV | not soluble
MTAPSLLIAGCGDIGSRLATRLLPHGWTVHGLRRTVSELPAGVHGVAGDLFDTRKPALWPAAALDYVVYCATPSKRDEAGYRMAYVEGLRNVLSWLEQTGQRPKRLIFVSSSGVYGQQNGEWVDEDSITEPANYTGTVMLEAEQLALNSGLPATAVRLTGIYGPGRSDLSNRVRQGHSVRIDPPVYANRIHADDAASLLEHLLQADQRGVALESCYLGVDDDPAALADVVAWIREYLGVTEWSEEVSVQRVGSKRCSNARARALGWTPMYPDYRAGYAALLG | not soluble
MSTGSVDSQQSGGTLDAASKNIDHVIDQARHRHHQHRSKFKEAIDYLDQIFEDLKKECDPDDKNNNDENNKPFDPPPTFVAVKKKPTPLATSSASTTAPAAKIASASDSKKPASSSSTISVKPTVRQKTSETSKSKPLQQAPPSPVEVVIPVRKLSQGATNNQAEPTVAETIVLAKKTDKMDFTRRWLQDDLKSLAHLPPANIAPNASYYQDFDEHSLGSCSAEVAAFNTTKEKKNGSKASRKVSDSSDMIRPRPFRPQPVYPMVDGFNGPSAFEPFSSHTLPRVASNDQIPSEMKRSGSQDPYNTLRSMRSEGDGFDSARPSPSAFQQVSPFHRGSSMRSSLRSLPDHSPVRQKNSSYEVAAKDPVLSIDQLVAELELNTENTFSPADKRRSFPTSFGRPQAHQAQQHHAPSDYEKPNRFRAETRHAPTRGRAQNFVAPVAEPMTSKAPIYSQAVRPKQQQQQKSLDEVTSMLNRAVSQFGNEQRQAYQHPTAYKQLSQQSFGSVHSNNAFETINQEKINPSRVEAMHNMFERGTAPTSWKMQQKDSYEDRSQKMSPLQEVTYASLNSYSPPPPPPSHPLPQNGSHGMARNTSQNQISYHEYTPQPPTTQPPQRPPGSANSSQGGYYSSNSSGIGSNYPQNQQNQMYNNPRRSLIIDQQSISSRMPSVENDDDDGFYDNIGIYNDDRRYSRGSELETSASFRQLPPASNTSKHNRIGSFLRKIGGGSSRPPGSAASLMSLNKIANETIIKPGGLMKSNSLSNEPWKKVMLNGGASMPREANNNHKTGLGARLKNSLFGSRKRLDG | not soluble
MSALEWYAHKSLGDGIFWIQERFYESGNRANIWLVRGSEQDVVIDTGLGLRSLPEYLYSSGLLQDREAKEDAARRPLLAVATHVHFDHSGGLYQFDRVAVHHAEAEALARGDNFETVTWLSDSEVVRAPSPGWRARQFRVQAVQPTLILQDGDVINLGDRQLTVMHMPGHSRGSICLHDKDRKILFSGDVVYDGSLIDWLPYSRISDYVGTCERLIELVDRGLVEKVLPGHFNTFGAERLFRLASNYISKAGICHKVSTFAMRSLASLALRVTNSRTSP | not soluble
DPDEDSDNSAIYVQGLNDSVTLDDLADFFKQCGVVKMNKRTGQPMIHIYLDKETGKPKGDATVSYEDPPTAKAAVEWFDGKDFQGSKLKVSLARKKPPMN | soluble
MGSDKIHHHHHHMLVFFKERLVLLSVPKTGTTAYQTALRARADIVVSDPPELKHAPIYRYDRFFRPIFEKMFGVEMEIMAVVREPVDWLGSWYRYRRRPFMQGKPNATHGLSFDDFVTAYMQGKRPGFANVGSQARFLTPRPNGCTVSHLFKYENQPGIRAFLQDRLQTEIAPPRENVSPDLPLDLSPEIAERLRRKCAEEFDLHASAT | not soluble
MGSDKIHHHHHHMYPKNFWYVGAMKHEVGRQLLARTLLEQPVVFFRRNDGSVAALADRCSHRRVSLSLGRLIGDEVQCGYHGLTFAGDGSCTSIPGQSRVPPSACVRSYPVVERDGFVWIWPGDPALANETLVPDYAEICSSGRYVGRPAEALLVEAPFLFNIENVLDLSHVTYAHPETVGTPEVALTRPTVDVSEAKVQVTRNWDKASTGPSFKNLFGWDFVKNSQRISFWPGANMLLEIEVEPVGNNDPTQIKRLRVPGPCTPSTSTTHFKFSALYRDFLPDNEALTVGMFEQFRKTVMEDKVLMENQQRNWALDGVEVIRRIEPSSSGGMMDIAVDHAPLAARRWLQRLAMAERSAPEIKAPGVLQG | not soluble
MGSDKIHHHHHHMELEKIRKLYEKVDPSQLTEREKLLTELIFTDRKLKTDKLPNGRYRILQFSGNNFEELENTLKLLLPDFVKSIGEEKIVIEAFSTDSPTNSELFDIFQTLSQDMGEEVTAYVGRFVEKNKLSEVYSEEYKIFESQQTFSEYILSESLNLSENRILQEIRKELLENPEDQKLVEAMYKASSNQTKAAKILYVHRNTLINKIKKYEQKYGLQLSGSDLTLAYNLL | not soluble
MLSKTNQNIFTVSRLNAEVRLLLENEMGIVWLVGEISNFSAPVSGHWYLTLKDSRAQVKCAMFRGNNRRVTFKPANGNQVLVKARLSLYEPRGDYQLIIESMQPEGDGRLQQEFEELKMKLAAEGLFAQTNKLPLPEHPKRVGIITSKTGAALYDILDVLKRRDPSLPVVIYPTMVQGDDAAIQIAQAIGRANSRNECDVLIVGRGGGSLEDLWCFNNEILARTIAASQIPIISAVGHEVDMTIADFVADVRAPTPSAAAELVSRDNSHKDQSLVAKQHKLASAMRYYLSQQKQQSAQLLHRLERQHPSYQLQRQSQQLDELDMRLRRAMQRFIDTRQQAVERKHHRLQLNSPVKHLAQQKSRLERVEHKLLDTMDRKLLTMRHQLAIAAEKLDTVSPLATLKRGYSITQTEQGKVVTSADDVKTGDLLVTRLANGEIHSTVS | not soluble
MAHHHHHHMEVAFTISPGERQHVEYLADLFAIILAIEKVEKATLRDIITQEQYSSTITRLLDKYKSTVTYLEQSRNPFYSTIDSFWENYGSRCPAARTRIQLSFDDAKQQQQQQQDSDVNGTVDPRLVLECGQHFITLMDSLKLQQTAVDQLYTLLADLVRGLQRLGVTDQSFFHRLTTWKEKFDTMNASDELSERDTREFAFVLECGYQAFHAYLSESSARRPKA | not soluble
MSLAELAAVPAAPDDRLYSADNTQSSGETIRHLTWSGYEAANVQRPFEKKFDCQTGVDLFTSNLDAFNRLDDGAWREFDHATFDMAWLPDLAEAGLIRPLDYEAWKPYTFDKYTDLFQRENGYEFAFLDEDYNFDADGQLYGVPQRFGWASFALNTDVVSESDARSYDAAWADEYDVGVYDLPFWGVQIVMLREGIDPYATHTDAEVERIREATVALFENAAGVYADVGSLNTALAAGDIDIAFVSGNWINGSLRRGGRFEYEARVPDEGGVIWVETTTMLKGSHPSVSTNYLAYMQHGITAKNLMWPTVGGTNVVPHQSSIDRLNRRQRTVLRIDDLQDIIDKSRFYTGEGHHHHHH | soluble
RKRPLVLTADRGRGKSSALGIACAQLLQHKPLRILLTAPSINAVEPVYQHAQRLLTDAKQMKKDRLEVGYGYIQFIAPDELLSSLPECDLLLVDEAAAIPVPMLKQITEHYHRLVFSSTIHGYEGCGRGFTLKFIEWLQQQRPGMKTYHMQQPIRWSVDDKLEMWLYDAFILN | not soluble
